In EP3020822A1:

Molecular target: human TLR3, full length (human) (UniProt O15455)
Experiment: cell-based or functional assay

B1: mAb c1068 (antibody, from another filing, V domains shown)
VH: QVQLQQPGAELVQPGTSVRLSCKASGYIFTTYWIHWVKQRPGQGLEWIGEINPNNGRINYNEKFKTKATLTVDKSSSTAYMQLSSLTSEDSAVYYCTRVGVMITTFPYWGQGTLVTVSA
VL: DIQMTQSPASLSASVGETVTITCRASGNIHNYLAWYQQKQGKSPQLLVYNAKTLADGVPSRFSGSESGTQYSLKINSLQPEDFGSYYCQHFWSTPFTFGSGTKLELK
  % inhibition of TLR3 biological activity, poly(I:C) NF-κB reporter gene assay in 293T cells, mAb at 10 µg/ml: 38%
  TLR3 neutralization at saturation concentrations: 50%
